Data reported in publication PMC5308896, “A conformational switch regulates the ubiquitin ligase HUWE1” (eLife, 2017).
Ends that are not written are not given here.

What was measured:
Assay in all cases: fluorescence polarisation; apparent KD; constant 1 μM TAMRA-labelled p14ARF (45–64) peptide titrated with HUWE1 protein; 25°C, 20 mM HEPES pH 8.0, 150 mM NaCl, 10% glycerol, 1 mM EDTA, 5 mM DTT; three independent experiments
Conditions in all cases: both partners purified
HUWE1 (3810–4374) = biological target: T1, HUWE1 (3810–4374) (human, UniProt Q7Z6Z7 3810-4374)
T1 construct: source: LOBSTR RIL cells, purified (IMAC, gel filtration)
T1 sequence (looked up): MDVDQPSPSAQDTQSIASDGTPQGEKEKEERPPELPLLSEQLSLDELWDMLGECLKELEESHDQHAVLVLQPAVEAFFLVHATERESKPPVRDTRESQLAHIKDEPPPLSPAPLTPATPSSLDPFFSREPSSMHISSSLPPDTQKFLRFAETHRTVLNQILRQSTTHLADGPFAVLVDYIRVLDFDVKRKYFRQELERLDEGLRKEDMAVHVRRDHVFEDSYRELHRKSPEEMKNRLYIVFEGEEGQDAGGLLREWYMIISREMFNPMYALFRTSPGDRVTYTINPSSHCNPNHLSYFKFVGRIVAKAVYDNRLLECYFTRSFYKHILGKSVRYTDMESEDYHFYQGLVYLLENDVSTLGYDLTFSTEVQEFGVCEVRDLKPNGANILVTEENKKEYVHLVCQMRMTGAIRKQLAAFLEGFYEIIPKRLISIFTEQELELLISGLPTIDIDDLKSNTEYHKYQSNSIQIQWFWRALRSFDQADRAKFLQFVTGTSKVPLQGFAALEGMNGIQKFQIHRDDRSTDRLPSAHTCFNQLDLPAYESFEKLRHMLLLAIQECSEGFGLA

[1] = biological target: T2, HUWE1 (3951–4374), untagged (human, UniProt Q7Z6Z7 3951-4374)
T2 construct: Monomer MW 49.752 kDa (AUC methods); source: LOBSTR RIL cells, purified (IMAC, TEV protease cleavage, second IMAC, gel filtration); not shown: His6, N-terminal, cleaved
T2 sequence (looked up): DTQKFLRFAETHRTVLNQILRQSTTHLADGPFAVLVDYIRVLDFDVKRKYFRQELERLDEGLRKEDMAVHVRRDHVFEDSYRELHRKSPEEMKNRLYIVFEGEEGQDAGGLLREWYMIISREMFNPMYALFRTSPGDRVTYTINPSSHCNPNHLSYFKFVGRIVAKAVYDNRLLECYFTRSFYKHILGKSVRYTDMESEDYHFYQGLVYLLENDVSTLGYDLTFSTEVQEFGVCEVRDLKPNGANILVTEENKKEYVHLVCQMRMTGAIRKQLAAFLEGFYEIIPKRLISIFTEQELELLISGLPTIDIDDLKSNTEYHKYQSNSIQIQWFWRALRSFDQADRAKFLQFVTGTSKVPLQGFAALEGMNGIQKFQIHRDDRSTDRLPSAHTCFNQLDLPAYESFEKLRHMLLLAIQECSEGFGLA

[2] = biological target: T3, HUWE1 (3993–4374), HECT domain (human, UniProt Q7Z6Z7 3993-4374)
T3 construct: also called isolated HECT domain; source: LOBSTR RIL cells, purified (IMAC, gel filtration)
T3 sequence (looked up): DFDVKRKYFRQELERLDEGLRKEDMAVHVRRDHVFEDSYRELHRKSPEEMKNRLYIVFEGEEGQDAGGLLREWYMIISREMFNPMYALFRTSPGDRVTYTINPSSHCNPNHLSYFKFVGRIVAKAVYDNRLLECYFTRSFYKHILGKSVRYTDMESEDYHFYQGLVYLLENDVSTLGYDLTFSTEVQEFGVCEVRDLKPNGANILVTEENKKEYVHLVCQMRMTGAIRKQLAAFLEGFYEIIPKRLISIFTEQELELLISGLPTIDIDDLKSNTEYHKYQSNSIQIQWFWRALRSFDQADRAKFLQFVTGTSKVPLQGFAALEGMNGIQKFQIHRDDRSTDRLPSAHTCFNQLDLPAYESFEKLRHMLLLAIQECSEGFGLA

HUWE1 (3896–4374) = biological target: T4, HUWE1 (3896–4374) (human, UniProt Q7Z6Z7 3896-4374)
T4 construct: source: LOBSTR RIL cells, purified (IMAC, gel filtration)
T4 sequence (looked up): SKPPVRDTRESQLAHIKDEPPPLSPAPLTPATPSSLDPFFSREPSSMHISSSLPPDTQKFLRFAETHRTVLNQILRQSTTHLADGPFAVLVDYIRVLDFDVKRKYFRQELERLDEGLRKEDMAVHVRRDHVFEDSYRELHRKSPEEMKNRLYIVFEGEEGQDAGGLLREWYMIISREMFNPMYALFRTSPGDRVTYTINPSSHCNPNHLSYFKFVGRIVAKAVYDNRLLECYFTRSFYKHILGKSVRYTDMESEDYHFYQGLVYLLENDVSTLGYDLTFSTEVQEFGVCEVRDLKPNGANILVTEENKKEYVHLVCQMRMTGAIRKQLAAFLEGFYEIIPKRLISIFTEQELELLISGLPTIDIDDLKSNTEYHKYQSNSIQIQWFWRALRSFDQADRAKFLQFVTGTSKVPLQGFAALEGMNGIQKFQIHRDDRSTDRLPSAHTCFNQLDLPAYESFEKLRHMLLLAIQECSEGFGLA

Kd (HUWE1 (3810–4374)): 6 ± 1 µM
Kd [1]: 280 ± 40 µM
Kd [2]: 230 ± 40 µM
Kd (HUWE1 (3896–4374)): 340 ± 60 µM
B1: fluorophor-labeled p14ARF-derived peptide (residues 45–64), TAMRA-labelled (peptide)
peptide: LVLMLLRSQRLGQQPLPRRPK(TAMRA)
notes: p14ARF (alternative reading frame product of CDKN2A), human, residues 45–64; additional lysine residue at the C-terminus that carries the TAMRA label (told in words); also called p14ARF-peptide; p14ARF (45-64); source: synthetic peptide, bought: Elim Biopharm
